Tests used:
GFP-WIPI2b S68A (human) = assay: co-IP; GFP-Trap of GFP-WIPI2b WT or mutants from lysates of transfected HEK293A or HEK293A WIPI2 KO cells (full medium or 2 h EBSS), 2 h at 4 °C; washed in TNTE wash buffer (50 mM Tris pH 7.5, 300 mM NaCl, 5 mM EDTA, 0.1% Triton-X100); endogenous ULK1, ATG13 and ATG16L1 detected by western blot
GFP-WIPI2b S68D (human) = assay: as above

percent reduction of binding compared to WIPI2b WT (GFP-WIPI2b S68A (human)): 30% | percent reduction of binding compared to WIPI2b WT (GFP-WIPI2b S68D (human)): > 60%
Substance: endogenous ATG16L1 (from UniProt Q676U5 1-607) (natural protein)

From paper PMC11387628
